The series is described as follows: protein stability index of a GFP-peptide fusion (GPS, HEK-293T) (PSI 1-6); higher = more stable.
[1] abbreviates: treatment: DMSO, c terminus: a fixed tail appended.
[2] abbreviates: treatment: MLN4924 1 uM, 8 h, c terminus: a fixed tail appended.

± gives the standard deviation.
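Also: 24-mer peptide tiles fused after GFP, lentivirally expressed, FACS-sorted into six equal bins by GFP/DsRed ratio, decoded by Illumina sequencing, PSI is the read-weighted mean bin number.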

Turning to SDPENWDRKLHSRPRKLYKHSSTS [BTBD10], the protein stability index is, setting by setting: under setting [1], 3.77 ± 0.27; under setting [2], 3.94 ± 0.24.
Regarding DSVLKGMQAASSKMVSAEISENRK [SDE2], the protein stability index by setting is: under setting [1], 4.31 ± 0.23; under setting [2], 4.68 ± 0.33.
For PRDLPKHTPLISKSQSLRSVRRSE [RASAL3] the same measures were 5.19 ± 0.27 and 5.43 ± 0.2.
Turning to PLPQIPNLPFWVKEKANSLKNEIQ [SPATS1], the protein stability index runs as follows: under setting [1], 2.79 ± 0.45; under setting [2], 3.4 ± 0.3.
For TPLASSTDHQTPPTSPVQGTTPQI [HDAC6] the same measures were 5.17 ± 0.16 and 5.03 ± 0.16.
As for ATKTEPKKLEKYLQKLSALLMTAD [ELOA2], the protein stability index reads like this: under setting [1], 2.54 ± 0.59; under setting [2], 2.31 ± 0.54.
In turn, QAYLDDCHRRYSCAHCRAHLANHD [YPEL3] returned a protein stability index under setting [1] of 2.68 ± 0.43 and a protein stability index under setting [2] of 2.45 ± 0.39.
The sequence NQRMKSKRWQKNNWPKNSNGVTQK [NANOGP8] had a protein stability index under setting [1] of 3.89 ± 0.44 and a protein stability index under setting [2] of 4.2 ± 0.42.
As for ETLDYGKNYNYGMHYCAVPPRGPL [NEUROD6], the protein stability index reads like this: under setting [1], 2.65 ± 0.31; under setting [2], 2.68 ± 0.14.
The matching figures for VVHWVQSIGLRDYAGNLHESGVHG [PPFIA4]: 2.56 ± 0.27 and 1.93 ± 0.36.
On to AGHCSASPGPAAPTARMPGRLRG, for which the protein stability index is, setting by setting: (treatment: DMSO, c terminus: native) 3 ± 0.6; (treatment: MLN4924 1 uM, 8 h, c terminus: native) 2.93 ± 0.73.
With SPFAQELLDDGQQASPYHPGSCGA [ELF3], the protein stability index runs as follows: under setting [1], 4.83 ± 0.31; under setting [2], 5.04 ± 0.16.
For HESQQLATETQALAQRTQQDSTRT [TEKT4], the protein stability index stood at 5.41 ± 0.23 under setting [1] and 5.43 ± 0.074 under setting [2].
The matching figures for ELLATGDKGGRVVIFQREQESKNQ [PPP2R2B]: 3.79 ± 0.82 and 3.91 ± 0.34.
As to SAGGSRTPAMSSSSSSRVLLRQQL [TFE3], the protein stability index under setting [1] came out at 3.45 ± 0.24 and the protein stability index under setting [2] is 3.32 ± 0.19.
The matching figures for TLSGTCLLIANKRQSYDISIVAQV [CARM1]: 2.38 ± 0.69 and 2.68 ± 1.5.
The matching figures for AVQAQAGWLQHDFGHLSVFSTSKW [FADS1]: 2.23 ± 0.18 and 2.29 ± 0.33.
The matching figures for MEDSPLPDLRDIELKLGRKVPESL [LURAP1L]: 4.68 ± 0.2 and 4.63 ± 0.23.
With ILREIRHPNIITLHDIFENKTDVV [DAPK3], the protein stability index is, setting by setting: under setting [1], 2.47 ± 0.21; under setting [2], 2.54 ± 0.2.
For LVQLPNINRVSTCYSEEITVCGDL [PPEF2] the same measures were 2.42 ± 0.42 and 2.65 ± 0.44.
For PDDKLTLFCEVSVVQDSVNISGHT [SPOPL] the same measures were 2.47 ± 0.52 and 2.81 ± 0.49.
For RFNQAILVSRHDPASRRRVVEEVR [LPCAT4] the same measures were 3.62 ± 0.25 and 3.59 ± 0.29.
Take FGAAGVNRLSIGLQSLDDTELRLL [RSAD1]: the protein stability index under setting [1] turned out to be 2.8 ± 0.094 and the protein stability index under setting [2] came to 2.76 ± 0.54.
The matching figures for SWPRASPASGASSIKPEASQMPPP [SCNN1D]: 4.62 ± 0.27 and 4.63 ± 0.38.
For PPSRGHGYRDYGHSRRHESYSRGY [RBMY1A1] the same measures were 3.96 ± 0.07 and 4.01 ± 0.32.
For RYISMSVWTSPRRLVELAGQSLLK [PRAME] the same measures were 2.89 ± 0.1 and 2.96 ± 1.2.
As to KDGVTMAPAFRLSLKAKVSDNMSH [FSD1], the protein stability index turned out to be 3.56 ± 0.35 under setting [1] and 3.75 ± 0.26 under setting [2].
On to NQTAELRELLEFTHMYLQSDDEME [P3H4], for which the protein stability index under setting [1] came to 4.83 ± 0.19 and the protein stability index under setting [2] came out at 4.7 ± 0.18.
For the sequence DELIPEYLNFIRGVVDSEDLPLNI [HSP90AB1], the protein stability index under setting [1] turned out to be 3.22 ± 0.38 and the protein stability index under setting [2] is 3.3 ± 0.47.
Take QTTTAYKKTHETLSHAGQKATAAF [TPD52L1]: the protein stability index under setting [1] is 4.08 ± 0.34 and the protein stability index under setting [2] was determined as 3.98 ± 0.27.
For the sequence VYHSYDLPWFRTLSWYFLLCVNYF [CDS1], the protein stability index was determined as 2.85 ± 0.42 under setting [1] and 2.63 ± 0.51 under setting [2].
The matching figures for QFLLELLSDKSCQSFISWTGDGWE [ETS2]: 1.83 ± 0.38 and 1.85 ± 0.29.
TVGVYEAAKLLNVDPDNVVLCLLA [GADD45A]: the protein stability index turned out to be 2.26 ± 0.17 under setting [1] and 2.4 ± 0.22 under setting [2].
For TRQNGIQTNKPALRAVRQRSEFTL [STX5] the same measures were 3.19 ± 0.32 and 3.37 ± 0.39.
With TAGQERFRALAPMYYRGSAAAIIV [RAB22A], the protein stability index is 2.26 ± 0.091 under setting [1] and 2.25 ± 0.26 under setting [2].
The sequence ITHSTYSLPASSYSQDPVYANGGL [NOL4L] came in with a protein stability index under setting [1] of 2.96 ± 0.32 and a protein stability index under setting [2] of 3.18 ± 0.2.
With FYKREMFDPAEKYKMDHRRRGIAL [CASP6], the protein stability index runs as follows: under setting [1], 2.84 ± 0.2; under setting [2], 2.78 ± 0.26.
In the case of MQVIAIVLYLMMPIVNISEVLGPL [PHTF1], the protein stability index is 3.08 ± 0.29 under setting [1] and 3.34 ± 0.38 under setting [2].
For FRGQILGFWEEERPFWEEEKTFWK [CCDC70] the same measures were 2.25 ± 0.33 and 2.28 ± 0.31.
For IYSVVDLGMYQKVTSYCRSATLVG [SLC19A2] the same measures were 2.69 ± 0.42 and 2.74 ± 0.69.
The matching figures for LDKLNFEAINFCRGLGSQASTVTE [ACSBG2]: 3.36 ± 0.5 and 3.71 ± 0.24.
As for NRDEVLDNLLAFVCDIRPEIHENY [ATP6V1G1], the protein stability index under setting [1] was 2.49 ± 0.51 and the protein stability index under setting [2] was determined as 2.71 ± 0.37.
The matching figures for SQILQNKKHKNSQLDKNSEVYQEV [FAM98B]: 4.46 ± 0.42 and 4.81 ± 0.067.
The matching figures for HKVAPLVQSLCAKHGIEYQSKPLL [FADS1]: 2.68 ± 0.34 and 3 ± 0.17.
The matching figures for SLPRDRVLGFLIENFKGLAIPYLE [VPS39]: 3.24 ± 0.26 and 2.92 ± 0.49.
As to LVTTGANVNETDDWGRTALHYAAA [ANKRD44], the protein stability index runs as follows: under setting [1], 3.34 ± 0.26; under setting [2], 3.52 ± 0.15.
For YQSGGRIRRPVNVPIDIFSEEIRF [KCNA3], the protein stability index was 2.49 ± 0.43 under setting [1] and 3.11 ± 0.37 under setting [2].
In turn, RAILKPRKVCVGGKRRKDEISVDS [PPP2R2B] displayed a protein stability index under setting [1] of 3.85 ± 0.19 and a protein stability index under setting [2] of 4.1 ± 0.12.
With RGLSQNLFSNSDHQRDGTLGALHT [SASS6], the protein stability index turned out to be 3.87 ± 0.26 under setting [1] and 3.81 ± 0.17 under setting [2].
For HGPGHETPMTIPEFFRESVNRFGT [ACSBG2] the same measures were 3.54 ± 0.29 and 3.6 ± 0.13.
For LEAGADQEHKTDEMHTALMEACMD [ANKRD17] the same measures were 5.52 ± 0.37 and 5.34 ± 0.28.
The matching figures for MHYCAVPPRGPLGQGAMFRLPTDS [NEUROD6]: 2.97 ± 0.29 and 3.17 ± 0.38.
On to VLGEDVIVNDELYLNGASVLPHKS [GMPPB], for which the protein stability index was found to be 4.23 ± 0.28 under setting [1] and 4.31 ± 0.18 under setting [2].
Turning to EPHSLLHLSRLCVRHNLGDTRLGQ [SPSB2], the protein stability index was found to be 3.44 ± 0.18 under setting [1] and 3.35 ± 0.19 under setting [2].
For METSAPRAGSQVVATTARHSAAYR [FUNDC2] the same measures were 4.5 ± 0.19 and 4.2 ± 0.11.
The matching figures for FIWFVCSLVYYGLTLSAGDLGGSI [SLC22A15]: 3.46 ± 0.52 and 3 ± 0.78.
The matching figures for NCPGQYTFSMPSDSHVSSCSEDWV [CD69]: 3.8 ± 0.21 and 4.06 ± 0.22.
As for FRPYFTIHDSEFKEYTTRTQAPPS [DENND6A], the protein stability index is, setting by setting: under setting [1], 2.55 ± 0.23; under setting [2], 2.71 ± 0.27.
For ERDALEAVFRFWAGGEKGPQAFPM [DNAAF3] the same measures were 2.5 ± 0.24 and 2.58 ± 0.28.
With TITLNCPRNSDMKNQGEENGFPDS [EDARADD], the protein stability index was 4.11 ± 0.51 under setting [1] and 4.23 ± 0.19 under setting [2].
Consider RDMNGKSLDGKAIKVEQATKPSFE [RBMX], for which the protein stability index under setting [1] was 5.08 ± 0.24 and the protein stability index under setting [2] was 5.24 ± 0.27.
For QLDALPFFVITMIKIVLINSFGAI [SLC29A1] the same measures were 2.96 ± 0.54 and 3.31 ± 0.17.
For LTMTFPAGIVRVFSGTPPPPVLSF [FCHO1] the same measures were 2.92 ± 0.5 and 3.13 ± 0.54.
As for RRGWRPSSREDSLEAGLPLQVRGY [CHGA], the protein stability index runs as follows: under setting [1], 3.42 ± 0.47; under setting [2], 3.8 ± 0.27.
For CDLADRELVVIIGWAKHIPGFSTL [ESRRG] the same measures were 2.92 ± 0.76 and 3.05 ± 0.56.
For DIGAVYSHRPNQHNTVKLGAFQAQ [PRIM1], the protein stability index by setting is: under setting [1], 3.11 ± 0.41; under setting [2], 3.19 ± 0.45.
The matching figures for PQYTIRCRPLQFQPSKSHKKVLKK [ATE1]: 3.6 ± 0.09 and 3.88 ± 0.3.
The matching figures for TVTSLQVPVLKPMDLMVEVSPRRI [PPP2R2C]: 2.52 ± 0.18 and 2.65 ± 0.32.
MLQSFINYCLLFLIYTVMLAFRSG [SLC35F2]: the protein stability index was found to be 2.83 ± 0.4 under setting [1] and 3.42 ± 0.28 under setting [2].
Regarding LEANADTSVEEESFGPQPISRLEQ [RAD51], the protein stability index by setting is: under setting [1], 5.38 ± 0.2; under setting [2], 5.44 ± 0.18.
The matching figures for DESGGPDNEDYPLFRELWRYHFAT [KLHDC10]: 2.95 ± 0.29 and 2.99 ± 0.27.
For GSPEQLQIPVTDSGRHILEDSCAE [SDE2] the same measures were 5.18 ± 0.27 and 5.5 ± 0.35.
